# Measured values: the DeepSol protein solubility set
# Assay: soluble on expression in E. coli; label from the status in PepcDB or PDB records
row,Sequence,soluble on expression in E. coli
1,GHMSSTPSNQNIIPIIKKESIVSLFEKGIRQDGRKLTDYRPLSITLDYAKKADGSALVKLGTTMVLAGTKLEIDKPYEDTPNQGNLIVNVELLPLAYETFEPGPPDENAIELARVVDRSLRDSKALDLTKLVIEPGKSVWTVWLDVYVLDYGGNVLDACTLASVAALYNTKVYKVEQHSNGISVNKNEVVGKLPLNYPVVTISVAKVDKYLVVDPDLDEESIMDAKISFSYTPDLKIVGIQKSGKGSMSLQDIDQAENTARSTAVKLLEELKKHLGI,soluble
2,GHMSYSITLRVYQTNRDRGYFSIVEKTVWHFANGGTWSEANGAHTLTMGGSGTSGMLRFMSTKGERITVAVGVHNYKRWCDVVTGLKPDETALVINPQYYNNGGRDYVREKQLAEYSVTSAIGTKVEVVYTVAEGNNLEANVIFS,soluble
3,GHMTDEDSEANALADPDNPPLSAEQLASAPRMPRIKIIRRALKLTQEEFSARYHIPLGTLRDWEQGRSEPDQPARAYLKIIAVDPEGTAAALRKGATGS,soluble
4,GIDPFTHMATFISVQLKKTSEVDLAKPLVKFIQQTYPSGGEEQAQYCRAAEELSKLRRAAVGRPLDKHEGALETLLRYYDQICSIEPKFPFSENQICLTFTWKDAFDKGSLFGGSVKLALASLGYEKSCVLFNCAALASQIAAEQNLDNDEGLKIAAKHYQFASGAFLHIKETVLSALSREPTVDISPDTVGTLSLIMLAQAQEVFFLKATRDKMKDAIIAKLANQAADYFGDAFKQCQYKDTLPKEVFPVLAAKHCIMQANAEYHQSILAKQQYYFGEEIARLQHAAELIKTVASRYDEYVNVKDFSDKINRALAAAKKDNDFIYHDRVPDLKDLDPIGKATLVKSTPVNVPISQKFTDLFEKMVPVSVQQSLAAYNQRKADLVNRSIAQMREATTLANGVLASLNLPAAIEDVSGDTVPQSILTKSRSVIEQGGIQTVDQLIKELPELLQRNREILDESLRLLDEEEATDNDLRAKFKERWQRTPSNELYKPLRAEGTNFRTVLDKAVQADGQVKECYQSHRDTIVLLCKPEPELNAAIPSANPAKTMQGSEVVNVLKSLLSNLDEVKKEREGLENDLKSVNFDMTSKFLTALAQDGVINEEALSVTELDRVYGGLTTKVQESLKKQEGLLKNIQVSHQEFSKMKQSNNEANLREEVLKNLATAYDNFVELVANLKEGTKFYNELTEILVRFQNKCSDIVFAR,soluble
5,GKNTPKSAIIYTTMGDIHISLFYKECKKTVQNFSVHSINGYYNNCIFHRVIKHFMVQTGDPSGDGTGGESIWGNEFEDEFFDHLNHSKPFMVSMANCGPNTNGSQFFITTVPCPWLDFKHTVFGKVTQGSKIVLDIEKVRTDKRDKPLEDIKILNIKINN,soluble
6,GKPFSYGASFNLTFARNRYLRYPDSPNTVEWRKRTGRSVDASVVWVAEGLFRSEEEIDNSAWYGTRPNVGDIKYKDLNGDGKIDEDDRTRVGRGNRPELTYGLNLNCAWNGFDLSAQFTGGALFDVSLTGTYYNGYDDNTVWTQAFKEGANSPLYLVQNAYTTENPNGTFPRLTLGNQGHGGDNGLASTFWLRNGRYLRLKSAQLGYTFPKKWMSPVGIQNLRIYVEGSNLFTISGLPDGIDPESPGVNNGYYPQQRTIMGGITLTF,not soluble
7,GKQNTSAIEALAPHSVVFTTAGGSSPEFTSSEISEQQAERWKDSTPLGVSQTRIESDQNANTTAVMGLPEGTPLPDSVGGFIEQGALLPAELADFLHVRA,not soluble
8,GKRLSFEDGLVLYQTKDLPTLMRLANLVRERKHGHKTYFVHSIRVSQTNICYVGCTFCAFQRRFGEEGAWDWDVDEVVAWVKERYQPGLTEIHLTAGHHPKRPFAYYLDLVRALKENFPGVQVKAWTAAEIHHFSKIARLPYREVLKALKEAGLDAMPGGGAEIFAERVRRKIARAKVSAEGWLEIHRTAHELGIPTNATMLYGHIETLEERLDHMDRLRRLQDETGGFMSFIPLAFQPDGNQLARELGKKEFTTGLDDLRNLAVARLYLDNFPHIKGYWATLTPELAQVSLDWGVTDVDGTLIEERIVHMAGSPTPQGLTKRELARIILMAGRIPVER,not soluble
9,GLMALLMVFAVSIGGLTQIVPLFFQDVTNKPVEGMKPYTALQLEGRDVYIREGCVGCHSQMIRPFRAETERYGHYSVAGESVWDHPFLWGSKRTGPDLARVGGRYSDDWHRAHLYNPRNVVPESKMPSYPWLVAQPVDNSHTDVKMRTLRTLGVPYTDDDIAGAREAVKGKTEMDALVAYLQVLGT,not soluble
10,GLNFPTYDGKDRVVSLSEKNFKQVLKKYDLLCLYYHEPVSSDKVTQKQFQLKEIVLELVAQVLEHKAIGFVMVDAKKEAKLAKKLGFDEEGSLYILKGDRTIEFDGEFAADVLVEFLLDLIEDPVEIISSKLEVQAFERIEDYIKLIGFFKSEDSEYYKAFEEAAEHFQPYIKFFATFDKGVAKKLSLKMNEVDFYEPFMDEPIAIPNKPYTEEELVEFVKEHQRPTLRRLRPEEMFETWEDDLNGIHIVAFAEKSDPDGYEFLEILKQVARDNTDNPDLSILWIDPDDFPLLVAYWEKTFKIDLFRPQIGVVNVTDADSVWMEIPDDDDLPTAEELEDWIEDVLSGKINTEDDDEDDDDDDNSDEEDNDDSDDDDDE,soluble
11,GLNSVIKPTKYKPVPDEEPNSTDVEETLKRIQNNDPDLEEVNLNNIMNIPVPTLKACAEALKTNTYVKKFSIVGTRSNDPVAFALAEMLKVNNTLKSLNVESNFISGSGILALVEALQSNTSLIELRIDNQSQPLGNNVEMEIANMLEKNTTLLKFGYHFTQQGPRLRASNAMMNNNDLVRKRRL,soluble
12,GMADPKELQDKFWKALKSDRTVMLGLDGVEDGHARPMTAQIEGDSGGPIWFFTSKDNALIAMLGQGRRVIGAFSSKGHDLFASISGSLREDTDPAVVDRLWNPYVAAWYEGGKDDPKLALLRLDADHAQIWLNGSSLLAGIKVLLGV,soluble
13,GMASIKGEVDEIANYGNLKITKEEERVNITGDLEKFSSLEEGTIVTRFNMNDTSIQSLIGLSDGNKANNYFSLYVSGGKVGYELRRQEGNGDFNVHHSADVTFNRGINTLALKIEKGIGAKIFLNGSLVKTVSDPNIKFLNAINLNSGFIGKTDRANGYNEYLFRGNIDFMNIYDKPVSDNYLLRKTGETK,soluble
14,GMDDLTNLAARLRLLEDREEIRELIARYGPLADSGDAEALSELWVEDGEYAVVGFATAKGRAAIAALIDGQTHRALMADGCAHFLGPATVTVEGDTATARCHSVVFRCVSGTFGSHRVSANRWTFRRTPAGWRAVRRENALLDGSAAARALLQFR,soluble
15,GMDMKKHGLSIGINRIESVFFVTLKAIGTLTHEDYLVITPMLEGALSQVDQPKVSLFLDATELDGWDLRAAWDDLKLGLKHKSEFERVAILGNKDWQEWAAKIGSWFIAGEIKYFEDEDDALKWLRY,soluble
16,GMELDDAYANGAYIEGAADYPPRWAASAEDFRNSLQDRARLNLSYGEGDRHKFDLFLPEGTPVGLFVFVHGGYWMAFDKSSWSHLAVGALSKGWAVAMPSYELCPEVRISEITQQISQAVTAAAKEIDGPIVLAGHSAGGHLVARMLDPEVLPEAVGARIRNVVPISPLSDLRPLLRTSMNEKFKMDADAAIAESPVEMQNRYDAKVTVWVGGAERPAFLDQAIWLVEAWDADHVIAFEKHHFNVIEPLADPESDLVAVITA,soluble
17,GMFVQSALHQLKVAVDTSIQMLDQYTEIDLKIAPIQSKRSLFEMYAHLSLICHADLLILNGSTEKELHTFYKEQTPETIAQMQKTMIQGYDLLSKTFLSYSNEQLAEMKTAYWGISYSRFEWLLEIVAHFYHHRGQIHILLCEHMKDPNIPLFQ,soluble
18,GMGISNIKQLYSKWKSLQPLKPEDLKRWNDKFKLEFNYNSNHLEGNTLTYGQTKLLLMFGETSGNASLKDYEEMKAHNVGLEMIKQEAQDKERPLTESFIRELNRTILVQDYWKNAKTPDGQDIRMQIKVGEYKSRPNSVLTATGEVFSYASPEETPAFMTSLVDWYNLEADKGILTPVELAALLHYRYIRIHPFEDGNGRIARLLVNFVLHRYGYPMIVIHSEDKSNYLNILHQCDVEAGLTPSDGANATLNDILPFVNYLSSCLIRSLTLAIKAAKGESIEEEGDFDKK,soluble
19,GMHTDVNALFAALWQDYIKMTPSAAKIHQLLGHGAPIINDHIALRTFNIAKVNLSVLAKHFTSIGYVDSGDYKFEQKKLIAKHFEHPDPKQPKVFISELLVEEFSPEVQKSIHGLIDQVDIAATTADNFIYSGRHWDVDKATYQALLAESEYAAWVAALGYRANHFTVSINDLPEFERIEDVNQALKQAGFVLNSSGGEVKGSPEVLLEQSSTMADKVVVNFTDGDVEIPSCFYEFARRYPMANGQLYTGFVAASADKIFESTNAMM,soluble
20,GMINQERLVNEFMELVQVDSETKFEAEICKVLTKKFTDLGVEVFEDDTMAVTGHGAGNLICTLPATKDGVDTIYFTSHMDTVVPGNGIKPSIKDGYIVSDGTTILGADDKAGLASMFEAIRVLKEKNIPHGTIEFIITVGEESGLVGAKALDRERITAKYGYALDSDGKVGEIVVAAPTQAKVNAIIRGKTAHAGVAPEKGVSAITIAAKAIAKMPLGRIDSETTANIGRFEGGTQTNIVCDHVQIFAEARSLINEKMEAQVAKMKEAFETTAKEMGGHADVEVNVMYPGFKFADGDHVVEVAKRAAEKIGRTPSLHQSGGGSDANVIAGHGIPTVNLAVGYEEIHTTNEKIPVEELAKTAELVVAIIEEVAK,soluble
21,GMKRVLLLFDVDGTLTPPRLCQTDEMRALIKRARGAGFCVGTVGGSDFAKQVEQLGRDVLTQFDYVFAENGLLAYRNGLEIHRQSLLNALGNDRIVKFVKKTLRLIADLDIPVQRGTFVEYRNGMINVSPIGRNCSQAERDEFEVYDNEHRVRASLIAELENSFPDFGLKYSIGGQISFDVFPVGWDKTYCLQFVEDDFEEIHFFGDKTQEGGNDYEIYTDKRTIGHKVTSYKDTIAEVEKIIAMK,soluble
22,GMNISNLINADVDEKGFVSDKLRDNFFQIVRNRPENRTCFDCESRNPTWLSLSFAVFICLNCSSDHRKMGVHISFVRSSDLDKFTPIQLVRMDIGGNGRARNYFKQVLGVNFSPKTKEYASSICGRQYKQILDSEISE,soluble
23,GMNSGKVAFIVTKNGKRICDVIDECSQRGSTILKAQGGYKQDDIQVVMCACNSKEMYQVRKSVKDTDPDSFIVVVESHEVHGEGFKMTNIGEAEN,not soluble
24,GMPELAVQKVVVHPLVLLSVVDHFNRIGKVGNQKRVVGVLLGSWQKKVLDVSNSFAVPFDEDDKDDSVWFLDHDYLENMYGMFKKVNARERIVGWYHTGPKLHKNDIAINELMKRYCPNSVLVIIDVKPKDLGLPTEAYISVEEVHDDGTPTSKTFEHVTSEIGAEEAEEVGVEHLLRDIKDTTVGT,soluble
25,GMRKDDVVIVTCAITGAIHTPSMSPYLPVTPDQIVEEAVKAAEAGAGMVHIHARDPKDGRPTTDVEVFRYICREIKKQSDVVINVTTGGGGTLGIPVEERAKVVPALKPEIATFNMGSMNFAIHPLLKKYKEFKYDWEPEYLEMTRDIVFRNTFKDLEALSRIFKENDTKPELECYDIGQIYNTAFMFHEGYLEPPLRLQFIHGILGGIGTAVEDVLFMKQTADRLIGRENYTWSLVGAGRFQMPLGTLAVIMGGDVRVGLEDSLYIERGKLAKSNAEQVEKMVRIVKELGKRPATPDEVREILGLKGKERVNF,soluble
26,GMSENKKKFDKKGAKNMDEISKTLFAPIYPIIAENIINRFGITAGTCIDIGSGPGALSIALAKQSDFSIRALDFSKHMNEIALKNIADANLNDRIQIVQGDVHNIPIEDNYADLIVSRGSVFFWEDVATAFREIYRILKSGGKTYIGGGFGNKELRDSISAEMIRKNPDWKEFNRKNISQENVERFQNVLDEIGISSYEIILGDEGFWIIISKTDQEVI,soluble
